T1: full-length 30 amino acid CALR mutant neoepitope peptide (peptide used for immunisation) (human)
T1 construct: also called full-length peptide
T1 peptide: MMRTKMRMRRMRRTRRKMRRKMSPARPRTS

T2: thrombopoietin receptor (TpoR) (UniProt P40238 26-635, limits assumed)
T2 construct: whole, on cells; It was immunoprecipitated with anti-FLAG beads, so the expressed TpoR evidently carries a FLAG tag; The construct and the position of the tag are not described; also called TPO receptor
T2 sequence (looked up): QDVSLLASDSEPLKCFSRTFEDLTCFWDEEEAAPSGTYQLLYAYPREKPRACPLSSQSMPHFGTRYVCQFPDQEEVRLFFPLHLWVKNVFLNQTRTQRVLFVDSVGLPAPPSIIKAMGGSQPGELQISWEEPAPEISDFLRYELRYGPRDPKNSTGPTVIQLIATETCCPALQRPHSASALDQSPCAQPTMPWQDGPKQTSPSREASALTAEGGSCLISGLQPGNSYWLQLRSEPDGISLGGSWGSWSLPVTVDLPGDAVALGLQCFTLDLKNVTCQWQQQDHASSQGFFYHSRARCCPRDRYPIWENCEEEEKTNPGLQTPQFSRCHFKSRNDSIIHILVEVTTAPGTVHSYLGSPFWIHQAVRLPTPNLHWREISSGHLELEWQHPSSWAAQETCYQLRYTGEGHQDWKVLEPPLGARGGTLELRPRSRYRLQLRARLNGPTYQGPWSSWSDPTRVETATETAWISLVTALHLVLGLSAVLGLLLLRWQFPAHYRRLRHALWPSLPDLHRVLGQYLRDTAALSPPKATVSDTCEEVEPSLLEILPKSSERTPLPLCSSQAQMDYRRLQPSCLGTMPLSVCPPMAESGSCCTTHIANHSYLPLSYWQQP

T3: wild type calreticulin (CALR) (human, UniProt P27797 18-417)
T3 construct: also called CALR^WT; endogenous wild type CALR
T3 sequence (looked up): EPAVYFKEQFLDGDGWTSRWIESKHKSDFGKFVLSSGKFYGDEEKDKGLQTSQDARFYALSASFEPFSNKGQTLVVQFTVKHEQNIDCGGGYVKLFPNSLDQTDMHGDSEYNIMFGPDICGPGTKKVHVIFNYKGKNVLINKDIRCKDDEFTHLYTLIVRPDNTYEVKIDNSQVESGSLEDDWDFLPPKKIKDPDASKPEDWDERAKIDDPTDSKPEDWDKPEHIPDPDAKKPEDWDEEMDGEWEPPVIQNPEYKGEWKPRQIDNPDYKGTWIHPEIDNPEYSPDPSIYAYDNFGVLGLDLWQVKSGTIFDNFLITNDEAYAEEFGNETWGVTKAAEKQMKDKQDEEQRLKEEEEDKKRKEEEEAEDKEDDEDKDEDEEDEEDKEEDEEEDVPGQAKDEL


Columns and labels:
[1] = molecular target: T1, full-length 30 amino acid CALR mutant …; experiment: Scatchard analysis, 125I-labelled and unlabelled 4D7 on plate-bound full-length peptide; right plot of three replicates, R2= 0.994
Description: (§1) A. Western blot screening of various mutant CALR antibody clones produced from hybridomas in TF-1 TpoR and TF-1 TpoR CALR^del61. Varying levels of intensity can be observed, compared to commercial Dianova monoclonal mutant CALR antibody. 4D7 is able to detect mutant CALR protein in CALR^del61 cells but not in CALR wild type TF-1 cells. B. Replicate Scatchard analyses of 4D7 using I¹²⁵-labelled and unlabelled 4D7 bound to full-length peptide (n=3). C. […] Cells were cultured in the presence or absence of 10 ng/ml TPO (n=3). D. Paracrine CALR-mutant protein is not sufficient to maintain TPO sensitive cells in culture. TF1 TpoR and TF-1 TpoR CALR^del61 cells were seeded at the same density and cultured in the presence or absence of TPO. […] Cell populations on either side of the membrane were counted every 24 hours over 4 days in triplicate and representative images were taken on day 4. […] E. Histogram overlays showing fluorescence intensity of unstained and PE conjugated IgG2a isotype control in TF-1, TF-1 TpoR and TF-1 TpoR CALR^del61 compared to 4D7 conjugated to PE.
(§2) 4D7 was radio-iodinated with ¹²⁵I (Perkin-Elmer) using Pierce Pre-Coated Iodination tubes (Thermo Scientific) with an estimated specific activity of 7733cpm/ng. […] 200 μL aliquots from each well were counted on a PerkinElmer 2470 Wizard2 Automatic Gamma Counter. Dissociation constants were calculated using the EBDA and LIGAND programs.

[2] = molecular target: T2, thrombopoietin receptor (TpoR); experiment: flow cytometry on TF-1 TpoR cells (TpoR with endogenous wild type CALR)
[3] = molecular target: T3, wild type calreticulin (CALR); experiment: Western blot of TF-1 cell extracts (hybridoma clone screen)
Description: B. Replicate Scatchard analyses of 4D7 using I¹²⁵-labelled and unlabelled 4D7 bound to full-length peptide (n=3). C. […] Cells were cultured in the presence or absence of 10 ng/ml TPO (n=3). D. Paracrine CALR-mutant protein is not sufficient to maintain TPO sensitive cells in culture. TF1 TpoR and TF-1 TpoR CALR^del61 cells were seeded at the same density and cultured in the presence or absence of TPO. Cells were separated by semi-permeable membrane in a horizontal co-culture system. Cell populations on either side of the membrane were counted every 24 hours over 4 days in triplicate and representative images were taken on day 4. Exogenous CALR secreted by TF-1 TpoR CALR^del61 was unable to assist growth of factor dependent TF-1 TopR cells (n=3). E. Histogram overlays showing fluorescence intensity of unstained and PE conjugated IgG2a isotype control in TF-1, TF-1 TpoR and TF-1 TpoR CALR^del61 compared to 4D7 conjugated to PE.
For immunoblotting of total lysates, cells were lysed in NP40 buffer containing 150 mM NaCl, 50 mM Tris pH 7.6, 1% NP-40, supplemented with protease inhibitors (Complete, Roche) and phosphatase inhibitor cocktails, and boiled for 5 minutes after addition of sample buffer (60 mM Tris pH 6.8, 5% glycerol, 1% SDS, 2% β-mercaptoethanol, 0.02% bromophenol blue) before SDS gel electrophoresis followed by Western blotting (Tvorogov et al, 2010). […]

[4] = molecular target: T1, full-length 30 amino acid CALR mutant …; experiment: 125I-Scatchard analysis, saturation binding of 125I-4D7 to plate-coated peptide
Description: 4D7 was radio-iodinated with ¹²⁵I (Perkin-Elmer) using Pierce Pre-Coated Iodination tubes (Thermo Scientific) with an estimated specific activity of 7733cpm/ng. For saturation binding assays, plates were coated overnight at 4° C. with full-length neoepitope CALR peptide (2 μg/mL) or control scrambled peptide (2 μg/mL). Wells were washed 3 times with phosphate buffered saline+0.05% Tween20, blocked with 5% bovine serum albumin for 1 hour followed by further washing. ¹²⁵I-4D7 was added at concentrations ranging from 2 pM to 2.5 nM in triplicate and incubated at room temperature for 2 hours. After washing, 1M HCl was added for 30 minutes to elute bound antibody. 200 μL aliquots from each well were counted on a PerkinElmer 2470 Wizard2 Automatic Gamma Counter. Dissociation constants were calculated using the EBDA and LIGAND programs.

[5] = molecular target: T1, full-length 30 amino acid CALR mutant …; experiment: Scatchard analysis, 125I-labelled and unlabelled 4D7 on plate-bound full-length peptide; middle plot of three replicates, R2= 0.9926
Description: as §1, §2

[6] = molecular target: T1, full-length 30 amino acid CALR mutant …; experiment: Scatchard analysis, 125I-labelled and unlabelled 4D7 on plate-bound full-length peptide; left plot of three replicates, R2= 0.9794
Description: as §1, §2

[7] = molecular target: T3, wild type calreticulin (CALR); experiment: Western blot of cell extracts
[8] = test system: 30 amino acid peptide corresponding to the C-terminal mutant CALR neoepitope sequence; experiment: ELISA binding to peptide; parameters: species or system human
Description: (§3) Rats were immunised with a CALR mutant peptide “MMRTKMRMRRMRRT RRKMRRKMSPARPRTS” coupled to KLH, this peptide sequence is unique to CALR mutant. Serum from the immunised rats was screened by enzyme linked immunoassay, to verify a strong titre to the peptide immunogen, prior to performing the hybridoma fusion. Immunised rat spleen cells were harvested and a spleen single cell suspension was combined with Sp2/O myeloma cell line. The cell mixture was treated with polyethylene glycol plus DMEM prior to been plated in 96 well flat bottom plates. The expanding hybridomas were screened initially by ELISA and the positive clones were further verified by western blot, for reactivity to the expressed CALR mutant protein before subcloning the hybridomas for antibody production.

[9] = molecular target: T1, full-length 30 amino acid CALR mutant …; experiment: ELISA on peptide
[10] = test system: TF-1 TpoR CALR^del61 cells; experiment: Cell proliferation, trypan blue exclusion; format: cell-based, human; settings: 5 or 20 μg/mL; FIG. 8
Description: […] Cells were seeded in triplicate and each well was counted in triplicate every 24 hours for 5 days using trypan blue exclusion.

mutant CALR protein = experiment: Western blot detection of mutant CALR by hybridoma clones; format: binding, human; settings: cell extracts from TF-1 cells transduced with and without mutant CALR; data not shown
Description: as §3
For immunoblotting of total lysates, cells were lysed in NP40 buffer containing 150 mM NaCl, 50 mM Tris pH 7.6, 1% NP-40, supplemented with protease inhibitors (Complete, Roche) and phosphatase inhibitor cocktails, and boiled for 5 minutes after addition of sample buffer (60 mM Tris pH 6.8, 5% glycerol, 1% SDS, 2% β-mercaptoethanol, 0.02% bromophenol blue) before SDS gel electrophoresis followed by Western blotting (Tvorogov et al, 2010). Primary antibodies against pERK (#9101), pSTAT5 (#9359), ERK (#4695), Actin (#4970), Caspase 3 (#14220), wildtype CALR (#12238) were purchased from Cell Signalling. Primary antibodies against pSTATI (#612233), pSTAT3 (#612357), STATI (#610186), STAT3 (#610190), STAT5 (#610192) and Anti-phosphotyrosine 4G10 (#610012) were purchased from BD Biosciences. Mutant CALR monoclonal antibody CAL2 was purchased from Dianova (Hamburg, Germany). Immunopreciptation of TpoR was performed in standard NP40 lysis buffer with additional 50 mM iodoacetamide to avoid any de novo disulfide bond formation post lysis. To reduce IgG background during immunoprecipitation anti-FLAG conjugated to magnetic beads (Sigma, #M8823) were used. For this same reason, anti-FLAG-HRP conjugated antibodies (Sigma, #A8592) were used in western blotting.

Kd [1]	binding result [3]	Kd [4]	Kd [5]	Kd [6]	binding result [7]	binding to peptide by ELISA [8]	binding result [9]	Molecule	binding result [2]	proliferation of cytokine-independent TF1 TpoR/mutCALR cells [10]	detecting mutant but not wild type CALR protein by Western blotting (mutant CALR protein)
1.25 nM	no binding	1.53 nM	1.43 nM	1.91 nM				4D7 rat monoclonal IgG2a anti-mutant calreticulin antibody (antibody, V domains shown, also called clone 4D7; clone 4D7 mAb) VH: QVQLQQSGAELAKPGSSVKISCKASGYTFTNYDMSWIKQRPGQALEWIGAINPGNGVTDYNEKFRGKATLTVDKSSSTAFMQLSSLTPEDTAVYHCAREYRDNYGYFDYWGQGVMVTVSS VL: DIVLTQTPVSLSVTLGDQASISCRSSQSLEYSDGYTYLDWFLQKPGQSPQLLIYEVSSRFSGVPDRFIGRGSGTDFTLKISRVEPEDLGVYYCFQATHDPFTFGSGTKLEIK	no binding (tested: 4 µg/mL (FIG. 1D legend))		
					no binding	positive binding	binds	9H11 rat monoclonal anti-mutant calreticulin antibody (antibody, V domains shown, also called rat anti-human mutCALR 9H11) VH: QVQLQQSGAELTKPGSSVKISCKASGYTFTTYDISWIKQRPGQALEWIGAIYPGGETTGYNEKFKDKATLTVDKSSNTAFMQLSSLTPEDTAVYYCARWGHTTGTRFDHWGQGVMVTVSS VL: DIVLTQTPVSLSVSLGDQASISCRSSQSLEYSDGYTYLEWYVQKPGQSPQLLIWEVSDRFSGVPDRFIGSGSGTDFTLKISRVEPEDLGVYYCFQATHDPPTFGGGTKLELK		inhibit proliferation	superior activity
